Assay results from PMC10164081.
Where no end group is shown, it is not given here.

Columns and labels:
[1] = biological target: purified Ric-8B (peptide-binding thermal shift assay) (mouse) (UniProt Q80XE1); assay: differential scanning fluorimetry
Gαolf (human) = Gαolf (human) (UniProt P38405)
Chain of Gαolf (human) (P38405 whole entry): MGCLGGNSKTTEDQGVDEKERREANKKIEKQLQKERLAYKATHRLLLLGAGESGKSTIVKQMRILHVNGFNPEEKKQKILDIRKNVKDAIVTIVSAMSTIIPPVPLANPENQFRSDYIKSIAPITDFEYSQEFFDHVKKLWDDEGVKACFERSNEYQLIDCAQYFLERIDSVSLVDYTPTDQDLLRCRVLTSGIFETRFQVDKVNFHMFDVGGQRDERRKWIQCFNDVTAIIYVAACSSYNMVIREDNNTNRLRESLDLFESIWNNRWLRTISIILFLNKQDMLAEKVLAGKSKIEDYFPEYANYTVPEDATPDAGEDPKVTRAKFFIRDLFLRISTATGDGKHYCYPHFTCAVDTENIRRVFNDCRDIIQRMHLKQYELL

Row | Binder | maximal thermal shift (ΔTm) [1] [°C] | folding of the Gαolf-RLuc sensor (luminescence) in RIC-8B knockout HEK293T cells (Gαolf (human))
1 | NDCRDIIQRMHLRQLMLQ-NH2 [Gαs/Gα13 C-term chimera amidated peptide] | 4.8 | –
2 | Ric-8B F126A (natural protein) MDEERALYIVRAGEAGAIERVLRDYSDKHRATFKFESADEDKRKKLCEGIFKVLVKEVPTTCQVSCLEVLRILSRDKKILVPVTTKENMQILLRLAKLHESDDSLEKVSEFPVIVESLKCLCNIVANSQMAQQLSLELNLAAKLCNLLRKCKDRKFINDIKCFDLRLLFVLSLLHTDIRSQLRYELQGLPLLTQILESAFSIKWTDEYESAIDHNGPPLSPQETDCAIEALKALFNVTVDSWKVHKESDSHQFRVMAAVLRHCLLIVGPTEDKTEELHSNAVNLLSNVPVSCLDVLICPLTHEETAQEAATLDELPSDKTTEKDTALKNSTMVYNGMNMEAIHVLLNFMEKRIDKGSSYREGLTPVLSLLTECSRAHRNIRKFLKDQVLPPLRDVTNRPEVGSTVRNKLVRLMTHVDLGVKQIAAEFLFVLCKERVDSLLKYTGYGNAAGLLAARGLLAGGRGDNWYSEDEDTDTEEYKNAKP | – | 20 % reduction
3 | Ric-8B R166A (natural protein) MDEERALYIVRAGEAGAIERVLRDYSDKHRATFKFESADEDKRKKLCEGIFKVLVKEVPTTCQVSCLEVLRILSRDKKILVPVTTKENMQILLRLAKLHESDDSLEKVSEFPVIVESLKCLCNIVFNSQMAQQLSLELNLAAKLCNLLRKCKDRKFINDIKCFDLALLFVLSLLHTDIRSQLRYELQGLPLLTQILESAFSIKWTDEYESAIDHNGPPLSPQETDCAIEALKALFNVTVDSWKVHKESDSHQFRVMAAVLRHCLLIVGPTEDKTEELHSNAVNLLSNVPVSCLDVLICPLTHEETAQEAATLDELPSDKTTEKDTALKNSTMVYNGMNMEAIHVLLNFMEKRIDKGSSYREGLTPVLSLLTECSRAHRNIRKFLKDQVLPPLRDVTNRPEVGSTVRNKLVRLMTHVDLGVKQIAAEFLFVLCKERVDSLLKYTGYGNAAGLLAARGLLAGGRGDNWYSEDEDTDTEEYKNAKP | – | 59 % decrease
